Test results published in PMC7171158, “NusA directly interacts with antitermination factor Q from phage λ” (Scientific Reports, 2020).

Biological target: T1, NusA acidic repeat 2 domain (NusA-AR2) (E. coli, UniProt P0AFF6 426-495)
T1 construct: acidic repeat 2 domain (C-terminal domain) of E. coli NusA
Assay: NMR titration; 2H,15N-NusA-SKK titrated with NusA-AR2 and 15N-NusA-AR2 titrated with NusA-SKK (up to 1:7.5); 5 mm tubes; 298 K; 50 mM MOPS pH 6.5, 100 mM NaCl, 150 mM D-glucose, 5 mM DTT; two-state fit of chemical shift changes
Conditions: both partners purified

B1: NusA-SKK (S1, KH1 and KH2 domains of NusA) (domain or fragment)
chain: not shown
In the case of B1, the Kd is reported as < 341 µM.
